Substitutions are numbered along the chain they refer to. “Also recorded” adds a separate entry of the source.
B1: D102A (protein)
chain: KAPKTQPYNPCKPQEVIDTKCMGPKDCLYPNPDSCTTYIQCVPLDEVGNAKPVVKPCPKGLQWNDNVGKKWCAYPNLSTCPVKTPQ
modifications: left off: 6x His (two), N-terminal, state not stated
B2: N93A (protein)
chain: B1 chain with N64A, A73D
modifications: left off: 6x His (two), N-terminal, state not stated
B3: M51A (protein)
chain: B1 chain with M22A, A73D
modifications: left off: 6x His (two), N-terminal, state not stated
B4: P53A (protein)
chain: B1 chain with P24A, A73D
modifications: left off: 6x His (two), N-terminal, state not stated
B5: N95A (protein)
chain: B1 chain with N66A, A73D
modifications: left off: 6x His (two), N-terminal, state not stated
B6: Y103F (protein)
chain: B1 chain with A73D, Y74F
modifications: left off: 6x His (two), N-terminal, state not stated
B7: P87A (protein)
chain: B1 chain with P58A, A73D
modifications: left off: 6x His (two), N-terminal, state not stated
B8: Y67F (protein)
chain: B1 chain with Y38F, A73D
modifications: left off: 6x His (two), N-terminal, state not stated
B9: D94A (protein)
chain: B1 chain with D65A, A73D
modifications: left off: 6x His (two), N-terminal, state not stated

tested on: Cf-4 immune receptor; assay: Pure protein infiltrations into tomato leaves of cv Purdue 135 (+ Cf-4), hypersensitive response; assay type: in vivo; conditions: 5 μg/ml, 5 dpi
From the text: Tomato seeds were obtained from the Tomato Genetic Resource Center (TGRC) at UC Davis. WT-CfAvr4 and mutants thereof with single point mutations at selected amino acids were produced and purified from E. coli Rosetta-gami B cells as description above. […]

Molecule	Cf-4-mediated HR after protein infiltration
B1	weak HR response

same assay, conditions: 10 μg/ml, 5 dpi

Molecule	Cf-4-mediated HR after protein infiltration
B1	elicited an HR

same assay, conditions: both 5 μg/ml and 10 μg/ml, 5 dpi

Molecule	Cf-4-mediated HR after protein infiltration
B1	only partially trigger an HR
B2	failed to elicit an HR; also recorded: do not; also recorded: did not elicit an HR
B3	strong and equal in intensity HR; also recorded: strong and equally in intensity necrosis
B4	strong and equal in intensity HR; also recorded: strong and equally in intensity necrosis
B5	strong and equal in intensity HR; also recorded: strong and equally in intensity necrosis
B6	strong and equal in intensity HR; also recorded: strong and equally in intensity necrosis
B7	strong and equal in intensity HR; also recorded: strong and equally in intensity necrosis
B8	strong and equal in intensity HR; also recorded: strong and equally in intensity necrosis
B9	failed to elicit an HR; also recorded: do not; also recorded: did not elicit an HR

tested on: not listed separately; assay: Isothermal titration calorimetry (ITC) of CfAvr4 variants with chitin hexasaccharide; assay type: binding; conditions: ITC, (GlcNAc)6
Protocol: A stock solution of the monomer of N-acetylglucosamine was prepared by dissolving the dry powder in a buffer containing 10 mM Bis-Tris, pH 6.5, 100 mM NaCl to a concentration of 0.100 g/L using analytic techniques. Standard solution of 0, 0.010, 0.025, 0.050, 0.075 g/L were prepared by serial dilutions. Using glass test tubes and pipets, 100 μL of each standard was mixed with 300μL of concentrated sulfuric acid and vortexed for 10 sec to mix. Solutions were incubated at RT for 10 min and then placed on ice to stop the reaction. […] Analytically prepared solution of the di- and tri-saccharide scaled linearly to the calibration curve. To determine the concentration of the chitin hexasaccharide solutions used in ITC, the solutions were diluted into the dynamic range of the calibration curve (S12 Fig) and subjected to the above procedure.
All ITC experiments were performed on a TA Instruments low volume NanoITC with a 186uL reaction cell and a reference cell filled with degassed Milli-Q grade water. Reactions were run in a buffer containing 10mM Bis-Tris, pH 6.5, 100 mM NaCl. The reservoir solution was filled with protein solution and continuously stirred while Chitin hexasaccharide solutions titrated in 2.5μL aliquots for 19 injections, with an initial 1μL injection, for a total injection volume of 48.5μL. The carbohydrate solutions were made by dissolving the dry powder in buffer to a concentration of 20mM (confirmed using methods described above) and then diluted to the working concentration using the final buffer exchange flow through to match the buffers as closely as possible. The integrated heats, after correction for the heat of dilution were analyzed using the NanoAnalyze software from […]. An individual binding site model was used to fit the binding isotherm. All experiments were replicated a minimum of three times.

Molecule	increase in the Kd relative to WT-CfAvr4
B2	six
B5	three
B9	five

same assay, conditions: ITC, compared with WT-CfAvr4

Molecule	effect of the mutation on binding to (GlcNAc)6
B1	abolished all detectable binding
B3	did not affect the Kd substantially
B4	did not affect the Kd substantially
B6	did not affect the Kd substantially
B7	did not affect the Kd substantially; also recorded: does not have an effect on the binding thermodynamics
B8	did not affect the Kd substantially

tested on: germlings of Trichoderma viride; assay: In vitro protection assay of T. viride germlings against chitinases; assay type: cell-based; conditions: 5 μM protein with chitinases and β-1,3-glucanases, 6–8 h
Protocol: The ability of the WT-CfAvr4 and of ChBD mutants to protect against chitinases was evaluated in in vitro protection assays conducted as described before. Briefly, spores of T. viride (3∙10^3) were pre-germinated overnight at room temperature in 100 μl of half-strength PDB medium in 96 well plates. The following day, 5 μM of WT-CfAvr4 or ChBD mutants were mixed with 7.5 units of Zymolyase (Zymo Research cat. no. E1004) and 0.2 units of bacterial chitinases (Sigma-Aldrich cat. no. C6137) and the mixture was added to the microtitre plate wells containing the pre-germinated spores in a final volume of 150 μl. Plates were incubated at 25°C for 6–8 h before evaluating under the microscope fungal growth and the ability of the proteins to provide protection against chitinases. Zymolase has β-1,3 glucanase and β-1,3-glucan laminaripentaohydrolase activity and is added to the mixture in order to remove the surface glucans from the fungal cell wall and thus expose the underlying chitin layer.

Molecule	protection of fungal hyphae against chitinases, fungal growth
B1	essentially failed to protect the fungal hyphae against chitinases; also recorded: fail to protect the fungal hyphae

tested on: Cf-4; assay: Agrobacterium tumefaciens transient transformation assay (ATTA): co-expression with Cf-4 in Nicotiana benthamiana leaves; assay type: in vivo; conditions: N. benthamiana, three cell density ratios 0.5:1, 1:1, 2:1
Protocol: The Agrobacterium tumefaciens transient transformation assay (ATTA) was used for the transient co-expression into leaves of Nicotiana benthamiana of Cf-4 with the WT-CfAvr4 and the mutants thereof tested in this study. Briefly, N. benthamiana plants were grown in a growth chamber with 16 h of artificial light and 70% humidity, at 25°C for 4 weeks. The true mature form of the WT-CfAvr4 (i.e. between Lys30-Gln115) and of the mutants thereof were singly cloned into the binary expression vector pICH47742 downstream of the PR1A signal sequence of Nicotiana tabacum for targeted secretion into the apoplast, and under the control of CaMV 35S promoter and NOS terminator. The tomato Cf-4 was cloned into pMOG800 as descripted before. Binary vector plasmids were transformed into A. tumefaciens strain GV3101 by electroporation. For the ATTA assay, agrobacteria transformed with pMOG800:Cf-4 was grown in 10mL LB-mannitol medium (LB medium with 10 g/L mannitol) amended with 50 μg/mL kanamycin and 25 μg/mL rifampicin, whereas agrobacteria transformed with pICH47742:WT-CfAvr4 or pICH4774:CfAvr4-mutants were grown in LB-mannitol amended with 100 μg/mL carbenicillin and 25 μg/mL rifampicin. All cultures were incubated at 28°C for 2 days, after which period they were pelleted at 2800g for 15 min, re-suspended in MMAi medium (5 g/L Murashige and Skoog basal salts, 20 g/L sucrose, 10 mM MES, and […]) at an optical cell density (A600) of 2.0, and further incubated for 2–4 h at room temperature. Agroinfiltrations were performed by mixing agrobacteria containing pMOG800:Cf-4 with agrobacteria containing pICH47742_WT-CfAvr4 or pICH47742:CfAvr4-mutants at three different ratios of optical cell densities, i.e. A6000.5:A6001.0, A6000.5:A6000.5, and A6000.5:A6000.25 of. The mixture of agrobacteria was infiltrated into the leaves of N. benthamiana plants using a 1 mL syringe and the induction of an HR in the infiltrated leaf sectors was evaluated at 5 days post-infiltrations. Control infiltrations were made using only the pMOG800:Cf-4 transformed agrobacteria and the agrobacteria containing pICH47742:CfAvr4 or the mutants thereof without mixing the two cultures, at cell densities of A6000.25, A6000.5, and A6001.0.

Molecule	HR on transient co-expression with Cf-4
B1	strong and similar in intensity HR
B2	strong and similar in intensity HR
B3	strong and similar in intensity HR
B4	strong and similar in intensity HR
B5	strong and similar in intensity HR
B6	strong and similar in intensity HR
B7	strong and similar in intensity HR
B8	strong and similar in intensity HR
B9	strong and similar in intensity HR

tested on: subtilisin; assay: Subtilisin treatment (resistance against proteolytic degradation); assay type: in vitro ADME; set-up: key to Stability (Subtilisin assay): S: stable; PU: partially unstable; conditions: 500 ng/μL subtilisin, 30 min, room temperature
Protocol: The WT-CfAvr4 and selected mutants thereof were exposed to the non-specific protease subtilisin in order to determine their resistance against proteolytic degradation. Treatments with subtilisin were made as previously described with minor modifications. Briefly, 40 μM of the E. coli-produced CfAvr4 and the selected CfAvr4 mutants were mixed with 10 mM of calcium chloride and 500 ng/μL of subtilisin (Sigma-Aldrich) in a total volume of 15 μL. Samples were incubated for 30 min at room temperature, after which period they were denatured by mixing with 10 mM PMSF and SDS-PAGE loading buffer, and heating at 98°C for 10 min. Digestion products were visualized on an SDS-PAGE after staining with Coomassie blue.

Molecule	Stability (Subtilisin assay)
B1	PU
B2	PU
B9	PU

same assay, conditions: 500 ng/μl subtilisin, band of mature CfAvr4 on SDS-PAGE

Molecule	susceptibility to proteolytic degradation by subtilisin
B1	vulnerable to proteolytic degradation; also recorded: decreased intensity of this band
B2	more susceptible to degradation; also recorded: almost complete disappearance of the band
B9	more susceptible to degradation; also recorded: almost complete disappearance of the band

Source: publication PMC6128652, “Structure of the Cladosporium fulvum Avr4 effector in complex with (GlcNAc)6 reveals the ligand-binding mechanism and uncouples its intrinsic function from recognition by the Cf-4 resistance protein” (PLoS Pathogens, 2018)
